Here are results for 12 proteins from patent US20110033935.

Data set [1] concerns the target T1, variant of LAM2 in which glutamic acids at positions 8 and 61 were changed to lysine.
T1 chain: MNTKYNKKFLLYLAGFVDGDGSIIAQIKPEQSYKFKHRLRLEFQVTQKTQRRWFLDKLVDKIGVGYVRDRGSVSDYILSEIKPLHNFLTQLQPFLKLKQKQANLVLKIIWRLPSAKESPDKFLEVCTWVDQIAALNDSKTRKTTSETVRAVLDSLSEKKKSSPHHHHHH

The target of data set [2] is T2, HGH2.
T2 chain: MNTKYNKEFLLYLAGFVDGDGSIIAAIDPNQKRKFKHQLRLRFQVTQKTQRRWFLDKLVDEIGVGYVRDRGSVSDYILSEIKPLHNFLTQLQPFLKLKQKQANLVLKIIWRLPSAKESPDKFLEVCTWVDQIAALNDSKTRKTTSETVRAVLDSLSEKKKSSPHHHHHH

Data set [3] addresses T3, GLA2.
T3 chain: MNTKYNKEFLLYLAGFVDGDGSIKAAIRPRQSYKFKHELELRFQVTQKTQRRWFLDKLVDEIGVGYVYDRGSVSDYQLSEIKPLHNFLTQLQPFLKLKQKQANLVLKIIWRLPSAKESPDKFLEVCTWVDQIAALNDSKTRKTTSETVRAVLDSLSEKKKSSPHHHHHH

Data set [4] addresses T4, URA2.
T4 chain: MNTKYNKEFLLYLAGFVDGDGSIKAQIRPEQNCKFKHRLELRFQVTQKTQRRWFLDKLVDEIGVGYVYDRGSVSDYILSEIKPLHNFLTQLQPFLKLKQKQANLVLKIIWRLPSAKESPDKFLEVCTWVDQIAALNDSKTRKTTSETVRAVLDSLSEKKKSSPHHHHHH

Data set [5] has as its target T5, ACH2.
T5 chain: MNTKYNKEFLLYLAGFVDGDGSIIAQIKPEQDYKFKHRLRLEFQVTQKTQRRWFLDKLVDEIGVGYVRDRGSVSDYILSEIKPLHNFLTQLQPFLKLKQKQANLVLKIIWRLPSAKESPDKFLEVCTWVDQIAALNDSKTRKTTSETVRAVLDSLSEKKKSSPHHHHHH

Data set [6] addresses T6, CCR2.
T6 chain: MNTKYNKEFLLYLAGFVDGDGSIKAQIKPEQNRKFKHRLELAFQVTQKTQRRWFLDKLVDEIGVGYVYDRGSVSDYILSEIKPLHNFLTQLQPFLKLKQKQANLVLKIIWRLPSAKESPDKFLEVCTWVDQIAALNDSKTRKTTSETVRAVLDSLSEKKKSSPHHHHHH

Data set [7] deals with T7, CF2.
T7 chain: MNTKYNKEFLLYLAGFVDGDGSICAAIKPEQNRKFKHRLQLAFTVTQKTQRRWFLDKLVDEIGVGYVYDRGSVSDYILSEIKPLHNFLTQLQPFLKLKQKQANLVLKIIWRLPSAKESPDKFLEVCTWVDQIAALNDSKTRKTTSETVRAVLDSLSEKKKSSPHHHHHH

In data set [8] the target is T8, HGH2 (partner of CYP in the CYP/HGH2 heterodimer, the 44th table).
T8 chain: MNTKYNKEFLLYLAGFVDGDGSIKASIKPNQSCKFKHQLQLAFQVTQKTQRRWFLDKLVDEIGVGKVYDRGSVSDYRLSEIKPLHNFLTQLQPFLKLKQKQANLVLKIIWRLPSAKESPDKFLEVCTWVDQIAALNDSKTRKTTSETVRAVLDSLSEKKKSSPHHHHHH

Data set [9] has as its target T9, BRP2.
T9 chain: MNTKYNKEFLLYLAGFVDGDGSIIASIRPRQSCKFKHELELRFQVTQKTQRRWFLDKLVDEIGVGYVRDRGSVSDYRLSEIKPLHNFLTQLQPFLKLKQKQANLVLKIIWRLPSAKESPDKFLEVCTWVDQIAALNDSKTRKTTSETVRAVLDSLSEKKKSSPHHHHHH

Data set [10] concerns the target T10, LAM2.
T10 chain: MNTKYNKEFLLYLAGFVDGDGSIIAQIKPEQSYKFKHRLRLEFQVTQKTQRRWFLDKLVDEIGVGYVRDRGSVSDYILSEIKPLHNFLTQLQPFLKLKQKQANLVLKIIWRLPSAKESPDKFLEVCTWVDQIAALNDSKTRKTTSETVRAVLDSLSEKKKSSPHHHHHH

Data set [11] addresses T11, MYD2.
T11 chain: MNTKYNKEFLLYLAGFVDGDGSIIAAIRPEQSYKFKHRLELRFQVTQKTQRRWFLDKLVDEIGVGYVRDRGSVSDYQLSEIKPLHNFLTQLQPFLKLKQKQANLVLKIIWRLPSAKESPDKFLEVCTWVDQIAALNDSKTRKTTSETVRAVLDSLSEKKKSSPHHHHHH

Data set [12] deals with T12, MGC2.
T12 chain: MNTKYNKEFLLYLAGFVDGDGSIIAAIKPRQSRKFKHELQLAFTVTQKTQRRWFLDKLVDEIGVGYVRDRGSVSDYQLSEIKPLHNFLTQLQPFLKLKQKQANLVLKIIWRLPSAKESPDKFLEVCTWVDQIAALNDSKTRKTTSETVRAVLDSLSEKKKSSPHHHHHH

B1: variant of the LAM1 enzyme in which lysines at positions 7, 57, and 96 were changed to glutamic acids (protein)
chain: MNTKYNEEFLLYLAGFVDGDGSIIAQIDPRQCRKFKHELRLRFQVTQKTQRRWFLDELVDEIGVGYVRDRGSVSDYILSEIKPLHNFLTQLQPFLELKQKQANLVLKIIWRLPSAKESPDKFLEVCTWVDQIAALNDSKTRKTTSETVRAVLDSLSEKKKSSPHHHHHH
As for B1, in [1], the “cleavage of the LAM1/LAM2 hybrid DNA site against the two palindromic sites by co-expressed interface variants” value is “the LAM1/LAM2 hybrid site was found to be cleaved preferentially over the two palindromic sites”.

B2: HGH1 (protein)
chain: MNTKYNKEFLLYLAGFVDGDGSIIAQIDPNQDCKFKHQLRLRFQVTQKTQRRWFLDKLVDEIGVGYVRDRGSVSDYILSEIKPLHNFLTQLQPFLKLKQKQANLVLKIIWRLPSAKESPDKFLEVCTWVDQIAALNDSKTRKTTSETVRAVLDSLSEKKKSSPHHHHHH
Take B2: in data set [2], the “cleavage of a linearized DNA substrate with the intended non-palindromic recognition sequence (SEQ ID NO: 24, Human Growth Hormone promoter) by the 1:1 mixture” value is reported as “each rationally-designed meganuclease heterodimer cleaves its intended DNA site”.

B3: GLA1 (protein)
chain: MNTKYNKEFLLYLAGFVDGDGSIKAAIKPRQSYKFKHELSLAFQVTQKTQRRWFLDKLVDEIGVGYVYDRGSVSDYQLCEIKPLHNFLTQLQPFLKLKQKQANLVLKIIWRLPSAKESPDKFLEVCTWVDQIAALNDSKTRKTTSETVRAVLDSLSEKKKSSPHHHHHH
In the case of B3, in [3], the “cleavage of a linearized DNA substrate with the intended non-palindromic recognition sequence (SEQ ID NO: 32, Arabidopsis GL2 gene) by the 1:1 mixture” value was “each rationally-designed meganuclease heterodimer cleaves its intended DNA site”.

B4: URA1 (protein)
chain: MNTKYNKEFLLYLAGFVDGDGSIIAQIKPNQSCKFKHQLRLAFTVTQKTQRRWFLDKLVDEIGVGYVRDRGSVSDYILSEIKPLHNFLTQLQPFLKLKQKQANLVLKIIWRLPSAKESPDKFLEVCTWVDQIAALNDSKTRKTTSETVRAVLDSLSEKKKSSPHHHHHH
With B4, the “cleavage of a linearized DNA substrate with the intended non-palindromic recognition sequence (SEQ ID NO: 36, Saccharomyces cerevisiae URA3 gene) by the 1:1 mixture” value in data set [4] was “each rationally-designed meganuclease heterodimer cleaves its intended DNA site”.

B5: ACH1 (protein)
chain: MNTKYNKEFLLYLAGFVDGDGSIIAAIDPEQDCKFKHRLRLRFQVTQKTQRRWFLDKLVDEIGVGYVRDRGSVSDYQLSEIKPLHNFLTQLQPFLKLKQKQANLVLKIIWRLPSAKESPDKFLEVCTWVDQIAALNDSKTRKTTSETVRAVLDSLSEKKKSSPHHHHHH
Consider B5, for which the “cleavage of a linearized DNA substrate with the intended non-palindromic recognition sequence (SEQ ID NO: 23, human FGFR3 gene) by the 1:1 mixture” value in data set [5] is given as “each rationally-designed meganuclease heterodimer cleaves its intended DNA site”.

B6: CCR1 (protein)
chain: MNTKYNKEFLLYLAGFVDGDGSIKAQIRPRQNYKFKHELELEFQVTQKTQRRWFLDKLVDEIGVGYVYDRGSVSDYILSEIKPLHNFLTQLQPFLKLKQKQANLVLKIIWRLPSAKESPDKFLEVCTWVDQIAALNDSKTRKTTSETVRAVLDSLSEKKKSSPHHHHHH
With B6, the “cleavage of a linearized DNA substrate with the intended non-palindromic recognition sequence (SEQ ID NO: 26, human CCR5 gene) by the 1:1 mixture” value in [6] is “each rationally-designed meganuclease heterodimer cleaves its intended DNA site”.

B7: CF1 (protein)
chain: MNTKYNKEFLLYLAGFVDGDGSICAQIKPNQSYKFKHQLQLAFQVTQKTQRRWFLDKLVDEIGVGYVHDRGSVSDYILSEIKPLHNFLTQLQPFLKLKQKQANLVLKIIWRLPSAKESPDKFLEVCTWVDQIAALNDSKTRKTTSETVRAVLDSLSEKKKSSPHHHHHH
Regarding B7, the “cleavage of a linearized DNA substrate with the intended non-palindromic recognition sequence (SEQ ID NO: 25, human CFTR deltaF508 allele) by the 1:1 mixture” value in data set [7] is reported as “each rationally-designed meganuclease heterodimer cleaves its intended DNA site”.

B8: CYP (protein)
chain: MNTKYNKEFLLYLAGFVDGDGSIIAAIKPNQDYKFKHQLRLAFQVTQKTQRRWFLDKLVDEIGVGYVYDRGSVSDYQLSEIKPLHNFLTQLQPFLKLKQKQANLVLKIIWRLPSAKESPDKFLEVCTWVDQIAALNDSKTRKTTSETVRAVLDSLSEKKKSSPHHHHHH
B8: the “cleavage of a linearized DNA substrate with the intended non-palindromic recognition sequence (SEQ ID NO: 35, Nicotiana tabacum CYP82E4 gene) by the 1:1 mixture” value in [8] was “each rationally-designed meganuclease heterodimer cleaves its intended DNA site”.

B9: BRP1 (protein)
chain: MNTKYNKEFLLYLAGFVDGDGSIKAQIRPRQCRKFKHELELAFQVTQKTQRRWFLDKLVDEIGVGKVYDRGSVSDYELSEIKPLHNFLTQLQPFLKLKQKQANLVLKIIWRLPSAKESPDKFLEVCTWVDQIAALNDSKTRKTTSETVRAVLDSLSEKKKSSPHHHHHH
Consider B9, for which the “cleavage of a linearized DNA substrate with the intended non-palindromic recognition sequence (SEQ ID NO: 33, Arabidopsis BP1 gene) by the 1:1 mixture” value in data set [9] was “each rationally-designed meganuclease heterodimer cleaves its intended DNA site”.

B10: LAM1 (protein)
chain: MNTKYNKEFLLYLAGFVDGDGSIIAQIDPRQCRKFKHELRLRFQVTQKTQRRWFLDKLVDEIGVGYVRDRGSVSDYILSEIKPLHNFLTQLQPFLKLKQKQANLVLKIIWRLPSAKESPDKFLEVCTWVDQIAALNDSKTRKTTSETVRAVLDSLSEKKKSSPHHHHHH
Consider B10, for which, in data set [10], the “cleavage of the non-palindromic LAM1/LAM2 hybrid DNA site (SEQ ID NO: 22) by enzymes co-expressed from an operon in E. coli” value was “The co-expressed enzyme mixture was found to cleave all three sites, including the LAM1/LAM2 hybrid site”; the “cleavage of the non-palindromic LAM1/LAM2 hybrid DNA site (SEQ ID NO: 22) by purified enzymes mixed 1:1 and incubated at 42 C for 20 minutes” value was “The 1:1 mixture of LAM1 and LAM2, however, cleaves all three DNA sites”.

B11: MYD1 (protein)
chain: MNTKYNKEFLLYLAGFVDGDGSIIAQIRPRQSYKFKHELELAFQVTQKTQRRWFLDKLVDEIGVGKVRDRGSVSDYELSEIKPLHNFLTQLQPFLKLKQKQANLVLKIIWRLPSAKESPDKFLEVCTWVDQIAALNDSKTRKTTSETVRAVLDSLSEKKKSSPHHHHHH
For the protein B11, in data set [11], the “cleavage of a linearized DNA substrate with the intended non-palindromic recognition sequence (SEQ ID NO: 27, human DM kinase gene) by the 1:1 mixture” value was “each rationally-designed meganuclease heterodimer cleaves its intended DNA site”.

B12: MGC1 (protein)
chain: MNTKYNKEFLLYLAGFVDGDGSIKAQIKPNQCYKFKHQLQLAFQVTQKTQRRWFLDKLVDEIGVGYVYDRGSVSDYILSEIKPLHNFLTQLQPFLKLKQKQANLVLKIIWRLPSAKESPDKFLEVCTWVDQIAALNDSKTRKTTSETVRAVLDSLSEKKKSSPHHHHHH
B12: the “cleavage of a linearized DNA substrate with the intended non-palindromic recognition sequence (SEQ ID NO: 34, Nicotiana tabacum Magnesium Chelatase gene) by the 1:1 mixture” value in [12] is “each rationally-designed meganuclease heterodimer cleaves its intended DNA site”.
